According to the RNAGym collection of RNA variant scans (doi:10.1073/pnas.2313332121):

B1: TPR t1 (parent)
chain: GACCAAUCUGCCCUCAGAGCUCGAGAACAUCUUCGGAUGCAGAGGAGGCAGGCUUCGGUGGCGCGAUAGCGCCAACGUCCUCAACCUCCAAUGCAUCCCACCACAUGAUGAUGCCUGAAGAGCCUUGGUUUUUUG

Variants of: B1
Experiment: polymerase ribozyme fitness, log enrichment relative to wild type (log ratio); higher = more active; in vitro selection for triplet polymerase activity
How it was run: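 Fitness measures genotype enrichment against wild-type enrichment on a logarithmic scale, with inverse-variance-weighted averaging of replicates. The logarithm is base 2, and genotypes were kept only with ≥10 input reads and ≥1 read per output in Illumina sequencing. The sequenced libraries came from one triplicate in vitro selection round, including frozen incubation at −7 °C, of PCR-built, transcribed mutant libraries of each subunit of a heterodimeric triplet polymerase ribozyme.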

Variant | polymerase ribozyme fitness (log ratio)
G45A C88A U112G | -0.116
G45U C102A | -3.34
G44U U55A A68U G69U C86G G120U | -7.36
G45U U87A | -1.32
G45C C73A U81A C88G | -0.576
G45A C73U G93C | -1.34
G45C C104A G120A | -1.45
G45A C70G G110A | -6.64
G45A C79U | -1.01
G45A C79G | -1.88
G45A C56U | -0.103
G45A | -0.788
G45C | -1.57
G45U | -1.31
G45C A118G A121U | -1.69
G45A U54A C56U G57U U87G A91G G93A | -3.65
G44U G47U C49G | -5.36
G44U U133G | -1.78
G44U G60C U87G | -2.16
G44U C124G | -0.383
G45C C102A | -3.26
G45A C49A G117A | -2.04
G45A C104U | -0.463
G44U C64G C101G A121U | -6.22

Variant | polymerase ribozyme fitness (log ratio)
G45A C97U | -2.83
G45A C53A U78C U109G G110U A121U | -3.1
G44U G60A U129C | -1.49
G45U C72A C114A C123G U133A | -2.6
G45U A90C | -1.56
G44U G45C C62U | -3.45
G44U U112G | -1.6
G44U U112C | 0.722
A46C C49A G63A | -0.445
G44U G48U C114A | -2.93
G45U U55C G61U | -1.09
G45A G69A U109G A118C | -6.05
G44U G47U C49U C72A A74G U96G U132A | -5.92
G44U C73A C102A | -2.29
G44U G69U G117C A121C | -4.54
G45A C72U | -0.796
G44U C53A C56A U67C A111C | -6.43
G45U U116A | -4.04
G45U U116C | -1.67
G45U G128U | -2.42
G45U G71C | -2.68
G45C A84G | -1.49
G45A G52U U130G | -1.91
G44U C70A U116C | -4.01

Variant | polymerase ribozyme fitness (log ratio)
G44U U106G A119G | -1.15
A46C C56G C72G U87A A100U C124A | -0.516
G45U A50U G60U C79G | -2.53
G44U C114U U132A | -2.69
A46C A50G | -0.277
G45A G51A C72U | -3.6
G45U C73U | -1.98
G45U C73G | -0.942
G44U C56A G127C | -2.27
G45U G47C G52A A83U C124U | -3.57
G44U U87C U106C | -1.29
G45A C53G A83G G117A | -3.23
G45C G60C A84G | -2.3
G44U U129A U131A | -3.84
G45U C53A C64A U112A G117A | -6.13
G44U C53U | -1.59
G44U C88A U133G | -1.73
G45C G110C | -5.03
G45C C80U U87A | -2.93
G45C C70U | -1.4
G45C G63A U106A | -1.21
G45U G93C C124G | 0.153
G44U G61A C98A G117U | -7.12
G45U U81A | -3.03

Variant | polymerase ribozyme fitness (log ratio)
G44U U109A | -5.43
A46C A100C C115U U129A | -5.33
G45U C56U C70U A75U | -2.3
G44U C72G U92A C115G | -5.53
G45U C72G C114A | -2.66
G45C U129C | -2.28
G44U G48A C114A | -2.35
G45A C98U U106A | -1.28
G45U C49U C115G | -3.11
G44U C64U | -1.48
G44U U131A | -1.33
G45U A50C C56A | -1.55
G45C C79A | -2.14
G45A G48U U54C C56G G69U U78G G93U C123G U130A | -2.55
G45C G113C | -2.91
G45A U130C | -1.02
G45C C101A U106C | -2.07
G44U G47U C72A U81G G117C | -6.49
G45U U54A | -1.35
G45U C88U | -0.272
G45C G113C G135U | -4.16
G45A A50G C62U | -0.502
A46C C53U U112A | 0.835
A46C C62G | -2.43

Variant | polymerase ribozyme fitness (log ratio)
G45U C62U | -1.63
G45U G57C A118U | -0.526
G45U U129G U132A | -3.85
G44U G60C | -0.794
G45C C56U | -1.86
G45C C56A | -1.46
G45C G48U G60A G61A A83C | -3.56
G45U G63U C101G U112A | -2.32
G45U C56G | -2.16
G45U C56U | -1.13
G45U C123A | -0.805
G45U C123G | -0.391
G44U G61U G110U | -1.97
G44U G45A G122A | -3.13
G45C G47A C79G | -5.96
G45U G127U | -3
G44U G47A C56A C124U G127C U131A G135C | -3.28
G44U C72A G127C U131C | -3.12
G45A C94U | -0.815
G45C A46U C72G | -2.36
G44U C56U | -0.616
G44U C72A | -1.04
A46C A100G | -4.28
G45A C56U A90U | -1.57

Variant | polymerase ribozyme fitness (log ratio)
G45U G60C U78G | -3.53
G45A G51C | -5.06
G45A G69U U112A | 1.62
G45C C76G U125G | -1.06
A46C C72A C123U | 0.713
G44U C53G G71U C73A C82U U129G | -3.9
G45U C62U U78G C101A G122A | -3.21
G44U C72G C85A | -2.52
G45U A74C A108G | -3.25
G44U C98A G120U | -6.27
G45U A95U | -1.69
G44U C72G C85U U96A A121G C124G | -3.64
G44U C82A C97A A121U | -3.17
G45U C49G C53U C88G | -0.226
G45U C70A C85A A90U | -6.19
G45A C89G U116G | -4.12
G44U G48U | -2.5
G44U G45U G60C C72U C101U A121G U131C | -0.75
G45A G48U C49A C53U G69C C115G | -4.6
G45A U67A C102A G120A | -6.86
G45C C115U A121G G128A | -4.67
G45C G61A U129A | -0.659
G45C G69A | -3.75
G45A U59G C62G | -3.84

Variant | polymerase ribozyme fitness (log ratio)
G45U A50U G58C C114G | -5.4
G45U G51A | -3.89
G45A G71U A84G | -2.48
G45A G69U | 1.63
G45U A66G | -2.32
G45A U59C C62G | -5.53
G45C U55A A95U C114U | -3.85
G44U C62G C79U A90G | -1.45
G44U G47C C53U C72G | -4.81
G44U G52U U55A U132A | -2.55
G45U C53U G61A A105U | -2.59
G45A A83C A84U A100G G122U C123G | -5.96
G45U G52A U96G | -2.98
A46C C53A A95C G128C | -3.03
G44U G120U U131A | -1.89
A46C C56A | -1.56
G45A C64U A83G U96G G122A | -2.56
G45A G71C C101A C115U G127C | -5.44
G45A C86A | -1.9
G45C G77A C82G C89G | -3.97
G45A C62U U96G | -1.28
G45C C88U | -0.355
G45A C73G C85A | -2.3
